{"source": "paper PMC13544220", "about": "“Glycemic and bodyweight effects of GIPR coding variation reflect differences in surface expression and intrinsic functional impairment” (Science Advances, 2026);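 on AD293 100 nM HTRF: ratio to experiment-wide average response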;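 on AD293 100 nM cADDis: Ensemble cells as % of IBMX/FSK response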;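 on AD293 100 pM HTRF: ratio to experiment-wide average response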;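 on AD293 100 pM cADDis: Ensemble cells as % of IBMX/FSK response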", "molecules": {"B1": {"name": "S447T (protein, UniProt P48546 22-466, looked up, variant S447T)", "Gastric inhibitory …": "RAETGSKGQTAGELYQRWERYRRECQETLAAAEPPSGLACNGSFDMYVCWDYAAPNATARASCPWYLPWHHHVAAGFVLRQCGSDGQWGLWRDHTQCENPEKNEAFLDQRLILERLQVMYTVGYSLSLATLLLALLILSLFRRLHCTRNYIHINLFTSFMLRAAAILSRDRLLPRPGPYLGDQALALWNQALAACRTAQIVTQYCVGANYTWLLVEGVYLHSLLVLVGGSEEGHFRYYLLLGWGAPALFVIPWVIVRYLYENTQCWERNEVKAIWWIIRTPILMTILINFLIFIRILGILLSKLRTRQMRCRDYRLRLARSTLTLVPLLGVHEVVFAPVTEEQARGALRFAKLGFEIFLSSFQGFLVSVLYCFINKEVQSEIRRGWHHCRLRRSLGEEQRQLPERAFRALPSGSGPGEVPTSRGLTSGTLPGPGNEASRELESYC"}}, "format_in_all_cases": "cell-based, human", "key": {"[1]": {"tested_on": "wild-type and variant SNAP-GIPR", "experiment": "Surface SNAP-GIPR expression (SNAP-tag labelling) in AD293 cells;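 on all read-outs here: scaled to the experimental average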", "settings": "for AD293 Surface: Fig S3E, mean; for Surface SNAP-GIPR expression: sheet Fig 1C", "how_it_was_run": "(§1)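 Read-out: whole-cell fluorescence of surface-only SNAP label (Alexa Fluor 647, 500 nM, 10 min, RT), wide-field 20X, several FOVs per well. Flat-field corrected, phase-contrast masked, nontransfected-well signal subtracted; normalized to experiment mean or wild-type.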"}, "[2]": {"tested_on": "wild-type and variant SNAP-GIPR", "experiment": "Single-concentration GIP cAMP response by HTRF in INS-1 cells", "settings": "Fig S3E, mean", "method": "(§2) All variants were tested in parallel on each occasion to control for transfection efficiency differences between experiments."}, "[3]": {"tested_on": "wild-type and variant SNAP-GIPR", "experiment": "Constitutive and agonist-mediated internalization, reversible SNAP-tag labelling, INS-1 cells", "parameters": "key to Internalisation, GIP-only / Internalisation, Vehicle / Internalisation, +GIP: % internalization: residual fluorescence after Mesna vs pre-Mesna", "settings": "Mean", "how_it_was_run": "(§3)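 Percentage internalization is read as the fraction of specific SNAP fluorescence that survives Mesna stripping, compared with the image taken before Mesna. Wells are imaged in TNE buffer at pH 8.6 and again after 10 min.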"}, "[4]": {"tested_on": "wild-type and variant SNAP-GIPR", "experiment": "cADDis cAMP imaging in AD293 cells, ensemble, expression-matched and per decile", "settings": "Fig S3F, cADDis, mean", "how_it_was_run": "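AD293 cells were transfected with SNAP-GIPR constructs and cotransduced with the cADDis Green Up cAMP sensor, then labeled after 24 h with 500 nM SNAP-Surface Alexa Fluor 647. Per-cell cADDis intensity was tracked at 37°C in KRBH with 6 mM glucose and 0.1% BSA.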"}, "[5]": {"tested_on": "wild-type and variant SNAP-GIPR", "experiment": "Surface SNAP-GIPR expression (SNAP-tag labelling) in INS-1 cells", "settings": "Fig 4G; Mean", "how_it_was_run": "as §1"}, "[6]": {"tested_on": "wild-type and variant SNAP-GIPR", "experiment": "Constitutive and agonist-mediated internalization, reversible SNAP-tag labelling, AD293 cells", "parameters": "key to Internalisation, Vehicle / Internalisation, +GIP / Internalisation, GIP-only: % internalization: residual fluorescence after Mesna vs pre-Mesna; Surface expression: unit not given here", "settings": "Mean", "how_it_was_run": "as §3"}, "[7]": {"tested_on": "wild-type and variant SNAP-GIPR", "experiment": "Single-concentration GIP cAMP response by HTRF in AD293 cells", "settings": "Fig S3F, HTRF, mean", "method": "as §2"}}}
{"molecule": "B1", "values": [{"measurement": "AD293 Surface", "setting": "[1]; column repeated, paired with cAMP 100 nM", "result": 1.404}, {"measurement": "AD293 Surface", "setting": "[1]; paired with cAMP 100 pM", "result": 1.404}, {"measurement": "Surface SNAP-GIPR expression", "setting": "[1]; replicate 1", "result": 1.604}, {"measurement": "Surface SNAP-GIPR expression", "setting": "[1]; replicate 2", "result": 1.279}, {"measurement": "Surface SNAP-GIPR expression", "setting": "[1]; replicate 3", "result": 1.391}, {"measurement": "Surface SNAP-GIPR expression", "setting": "[1]; replicate 4", "result": 2.61}, {"measurement": "Surface SNAP-GIPR expression", "setting": "[1]; replicate 5", "result": 1.403}, {"measurement": "Surface SNAP-GIPR expression", "setting": "[1]; replicate 6", "result": 1.423}, {"measurement": "Surface SNAP-GIPR expression", "setting": "[1]; replicate 7", "result": 1.077}, {"measurement": "Surface SNAP-GIPR expression", "setting": "[1]; replicate 8", "result": 1.469}, {"measurement": "Surface SNAP-GIPR expression", "setting": "[1]; replicate 9", "result": 1.63}, {"measurement": "Surface SNAP-GIPR expression", "setting": "[1]; replicate 10", "result": 1.374}, {"measurement": "Surface SNAP-GIPR expression", "setting": "[1]; replicate 11", "result": 1.745}, {"measurement": "Surface SNAP-GIPR expression", "setting": "[1]; replicate 12", "result": 1.689}, {"measurement": "Surface SNAP-GIPR expression", "setting": "[1]; replicate 13", "result": 1.462}, {"measurement": "Surface SNAP-GIPR expression", "setting": "[1]; replicate 14", "result": 1.46}, {"measurement": "Surface SNAP-GIPR expression", "setting": "[1]; replicate 15", "result": 1.674}, {"measurement": "Surface SNAP-GIPR expression", "setting": "[1]; replicate 16", "result": 1.628}, {"measurement": "Surface SNAP-GIPR expression", "setting": "[1]; replicate 17", "result": 1.349}, {"measurement": "Surface SNAP-GIPR expression", "setting": "[1]; replicate 18", "result": 1.205}, {"measurement": "Surface SNAP-GIPR expression", "setting": "[1]; replicate 19", "result": 1.299}, {"measurement": "Surface SNAP-GIPR expression", "setting": "[1]; replicate 20", "result": 1.361}, {"measurement": "Surface SNAP-GIPR expression", "setting": "[1]; replicate 21", "result": 1.342}, {"measurement": "Surface SNAP-GIPR expression", "setting": "[1]; replicate 22", "result": 1.393}, {"measurement": "Surface SNAP-GIPR expression", "setting": "[1]; replicate 23", "result": 1.314}, {"measurement": "Surface SNAP-GIPR expression", "setting": "[1]; replicate 24", "result": 1.27}, {"measurement": "Surface SNAP-GIPR expression", "setting": "[1]; replicate 25", "result": 1.747}, {"measurement": "Surface SNAP-GIPR expression", "setting": "[1]; replicate 26", "result": 1.476}, {"measurement": "Surface SNAP-GIPR expression", "setting": "[1]; replicate 27", "result": 1.434}, {"measurement": "Surface SNAP-GIPR expression", "setting": "[1]; replicate 28", "result": 1.161}, {"measurement": "Surface SNAP-GIPR expression", "setting": "[1]; replicate 29", "result": 0.9451}, {"measurement": "Surface SNAP-GIPR expression", "setting": "[1]; replicate 30", "result": 1.119}, {"measurement": "Surface SNAP-GIPR expression", "setting": "[1]; replicate 31", "result": 1.316}, {"measurement": "Surface SNAP-GIPR expression", "setting": "[1]; replicate 32", "result": 1.418}, {"measurement": "Surface SNAP-GIPR expression", "setting": "[1]; replicate 33", "result": 1.322}, {"measurement": "Surface SNAP-GIPR expression", "setting": "[1]; replicate 34", "result": 1.362}, {"measurement": "Surface SNAP-GIPR expression", "setting": "[1]; replicate 35", "result": 1.415}, {"measurement": "Surface SNAP-GIPR expression", "setting": "[1]; replicate 36", "result": 1.515}, {"measurement": "Surface SNAP-GIPR expression", "setting": "[1]; replicate 37", "result": 1.174}, {"measurement": "Surface SNAP-GIPR expression", "setting": "[1]; replicate 38", "result": 1.292}, {"measurement": "Surface SNAP-GIPR expression", "setting": "[1]; replicate 39", "result": 1.035}, {"measurement": "Surface SNAP-GIPR expression", "setting": "[1]; replicate 40", "result": 1.181}, {"measurement": "Surface SNAP-GIPR expression", "setting": "[1]; replicate 41", "result": 1.207}, {"measurement": "INS-1 cAMP (100 nM)", "setting": "[2]", "result": 1.225}, {"measurement": "+GIP internalisation (100 nM)", "setting": "[3]; Fig 4G, GIP 100 nM", "result": 0.5789}, {"measurement": "GIP-specific internalisation (100 nM)", "setting": "[3]; Fig 4G, GIP 100 nM", "result": 0.1373}, {"measurement": "Constitutive internalisation (100 nM)", "setting": "[3]; Fig 4G", "result": 0.4416}, {"measurement": "Internalisation, +GIP", "setting": "[3]; Fig S4C, INS-1", "result": 49.3117}, {"measurement": "Internalisation, GIP-only", "setting": "[3]; Fig S4C, INS-1", "result": 11.6867}, {"measurement": "Internalisation, Vehicle", "setting": "[3]; Fig S4C, INS-1", "result": 37.625}, {"measurement": "AD293 100 pM cADDis", "setting": "[4]; AD293, 100 pM", "result": 33.2503}, {"measurement": "AD293 100 nM cADDis", "setting": "[4]; AD293, 100 nM", "result": 38.05}, {"measurement": "Surface expression", "setting": "[5]", "result": 1.143}, {"measurement": "+GIP internalisation (100 nM)", "setting": "[6]; Fig 4E, GIP 100 nM", "result": 0.6943}, {"measurement": "GIP-specific internalisation (100 nM)", "setting": "[6]; Fig 4E, GIP 100 nM", "result": 0.1731}, {"measurement": "Constitutive internalisation (100 nM)", "setting": "[6]; Fig 4E", "result": 0.5211}, {"measurement": "Surface expression", "setting": "[6]; Fig 4E", "result": 1.271}, {"measurement": "Internalisation, +GIP", "setting": "[6]; Fig S4C, AD293", "result": 54.6308}, {"measurement": "Internalisation, GIP-only", "setting": "[6]; Fig S4C, AD293", "result": 13.6704}, {"measurement": "Internalisation, Vehicle", "setting": "[6]; Fig S4C, AD293", "result": 40.9604}, {"measurement": "AD293 100 pM HTRF", "setting": "[7]; AD293, 100 pM", "result": 1.563}, {"measurement": "AD293 100 nM HTRF", "setting": "[7]; AD293, 100 nM", "result": 1.418}]}
